Laboratory results reported in PMC7329908, “Glucocorticoid receptor complexes form cooperatively with the Hsp90 co-chaperones Pp5 and FKBPs” (Scientific Reports, 2020).
Each block holds one binder with its values, some of them ahead of it.

Tests used:
Conditions in all cases: both partners purified
[1] = target: T1, C. elegans Hsp90 (HSP-90) (C. elegans, UniProt Q18688 1-702); experiment: AUC; sedimentation velocity with fluorescence detection; 600 nM ATTO 488-labelled GRLBDm, 3 μM unlabelled chaperones and cofactors, no nucleotide; 20 mM HEPES, 20 mM KCl, 5 mM MgCl2, 50 μM dexamethasone, pH 7.5; 42,000 rpm, 20 °C
T1 construct: HSP-90 (Hsp90 homolog), C. elegans; also called nematode HSP-90; nematode Hsp90; source: E. coli BL21 (DE3), purified (HisTrap, Resource Q, Superdex size exclusion)

[2] = target: T2, human Hsp90β (human, UniProt P08238 1-724); experiment: AUC; sedimentation velocity with fluorescence detection; 600 nM ATTO 488-labelled GRLBDm, 3 μM unlabelled chaperones and cofactors, 2 mM ATPγS; 20 mM HEPES, 20 mM KCl, 5 mM MgCl2, 50 μM dexamethasone, pH 7.5; 42,000 rpm, 20 °C
T2 construct: Hsp90β, human; source: E. coli BL21 (DE3), purified (HisTrap, Resource Q, Superdex size exclusion)
T2 sequence (P08238 whole entry): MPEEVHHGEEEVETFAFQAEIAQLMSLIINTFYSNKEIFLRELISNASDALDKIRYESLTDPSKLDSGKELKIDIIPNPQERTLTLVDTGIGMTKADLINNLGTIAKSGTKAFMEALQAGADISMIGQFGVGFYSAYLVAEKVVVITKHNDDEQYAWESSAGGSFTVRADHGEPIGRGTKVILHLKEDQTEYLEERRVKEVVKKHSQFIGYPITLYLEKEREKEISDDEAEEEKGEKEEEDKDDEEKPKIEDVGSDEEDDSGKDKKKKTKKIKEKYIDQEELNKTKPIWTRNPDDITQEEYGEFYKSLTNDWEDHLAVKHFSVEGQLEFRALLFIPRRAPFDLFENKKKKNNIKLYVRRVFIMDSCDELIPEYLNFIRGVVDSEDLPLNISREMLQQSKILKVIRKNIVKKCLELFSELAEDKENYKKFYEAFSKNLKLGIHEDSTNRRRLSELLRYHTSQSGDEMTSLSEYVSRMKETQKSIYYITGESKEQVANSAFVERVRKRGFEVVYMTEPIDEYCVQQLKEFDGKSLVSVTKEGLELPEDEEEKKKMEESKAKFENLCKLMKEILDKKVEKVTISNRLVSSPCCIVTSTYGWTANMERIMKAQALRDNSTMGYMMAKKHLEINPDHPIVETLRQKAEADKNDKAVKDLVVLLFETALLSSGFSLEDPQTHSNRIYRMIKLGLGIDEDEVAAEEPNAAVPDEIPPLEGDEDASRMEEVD

[3] = target: T2, human Hsp90β; experiment: AUC; sedimentation velocity with fluorescence detection; 600 nM ATTO 488-labelled GRLBDm, 3 μM unlabelled chaperones and cofactors, no nucleotide; 20 mM HEPES, 20 mM KCl, 5 mM MgCl2, 50 μM dexamethasone, pH 7.5; 42,000 rpm, 20 °C
[4] = target: T1, C. elegans Hsp90 (HSP-90); experiment: AUC; sedimentation velocity with fluorescence detection; 600 nM ATTO 488-labelled GRLBDm, 3 μM unlabelled chaperones and cofactors, 2 mM ATPγS; 20 mM HEPES, 20 mM KCl, 5 mM MgCl2, 50 μM dexamethasone, pH 7.5; 42,000 rpm, 20 °C

B3: human protein phosphatase Pp5 (enzyme, UniProt P53041 1-499, looked up)
chain: MAMAEGERTECAEPPRDEPPADGALKRAEELKTQANDYFKAKDYENAIKFYSQAIELNPSNAIYYGNRSLAYLRTECYGYALGDATRAIELDKKYIKGYYRRAASNMALGKFRAALRDYETVVKVKPHDKDAKMKYQECNKIVKQKAFERAIAGDEHKRSVVDSLDIESMTIEDEYSGPKLEDGKVTISFMKELMQWYKDQKKLHRKCAYQILVQVKEVLSKLSTLVETTLKETEKITVCGDTHGQFYDLLNIFELNGLPSETNPYIFNGDFVDRGSFSVEVILTLFGFKLLYPDHFHLLRGNHETDNMNQIYGFEGEVKAKYTAQMYELFSEVFEWLPLAQCINGKVLIMHGGLFSEDGVTLDDIRKIERNRQPPDSGPMCDLLWSDPQPQNGRSISKRGVSCQFGPDVTKAFLEENNLDYIIRSHEVKAEGYEVAHGGRCVTVFSAPNYCDQMGNKASYIHLQGSDLRPQFHQFTAVPHPNVKPMAYANTLLQLGMM
notes: Pp5 (serine/threonine protein phosphatase 5), human; source: E. coli BL21 (DE3), purified (HisTrap, Resource Q, Superdex size exclusion)
- binding result [3]: binds

B5: FKB-6, nematode large prolyl isomerase (FK1, FK2 and TPR domains) (enzyme, C. elegans, UniProt O45418 1-431, looked up)
chain: MSGEKIDITPKKDGGVLKLIKKEGQGVVKPTTGTTVKVHYVGTLENGTKFDSSRDRGDQFSFNLGRGNVIKGWDLGVATMTKGEVAEFTIRSDYGYGDAGSPPKIPGGATLIFEVELFEWSAEDISPDRDGTILRTIIVEGSKNSFPNDTSKVLAHCVGTYQGTEFYNREVNFHIGEGSEEGLPEGVERALRRFQLGEKSKIEIRGHKYTYGNSPPAGSNIPVNATLEFTIFLKEFEKVPATWEMTAEEKLDAAKQAKDRGTMYLQKGNLKLAYNKYKRAEEVLEYEKSTDPEKMAERETILNGAYLNLSLVCSKQNEQLECIKWCDKVLETKPGNVKALYRKATALLTMNEVRDAMKLFEKIVEVEPENKAAAQQIIVCRNTIREQNERDKKRFKNLFAKISTEEDKPTNTVEDEDEIVASTSGSSTSNA
notes: FKB-6, peptidyl prolyl isomerase with FK1, FK2 and C-terminal TPR region, C. elegans; source: E. coli BL21 (DE3), purified (HisTrap, Resource Q, Superdex size exclusion)
- binding result [4]: binds

B6: human Fkbp51 (enzyme, UniProt Q13451 1-457, looked up)
chain: MTTDEGAKNNEESPTATVAEQGEDITSKKDRGVLKIVKRVGNGEETPMIGDKVYVHYKGKLSNGKKFDSSHDRNEPFVFSLGKGQVIKAWDIGVATMKKGEICHLLCKPEYAYGSAGSLPKIPSNATLFFEIELLDFKGEDLFEDGGIIRRTKRKGEGYSNPNEGATVEIHLEGRCGGRMFDCRDVAFTVGEGEDHDIPIGIDKALEKMQREEQCILYLGPRYGFGEAGKPKFGIEPNAELIYEVTLKSFEKAKESWEMDTKEKLEQAAIVKEKGTVYFKGGKYMQAVIQYGKIVSWLEMEYGLSEKESKASESFLLAAFLNLAMCYLKLREYTKAVECCDKALGLDSANEKGLYRRGEAQLLMNEFESAKGDFEKVLEVNPQNKAARLQISMCQKKAKEHNERDRRIYANMFKKFAEQDAKEEANKAMGKKTSEGVTNEKGTDSQAMEEEKPEGHV
notes: Fkbp51, human PPIase; source: E. coli BL21 (DE3), purified (HisTrap, Resource Q, Superdex size exclusion)
- binding result [3]: binds

B7: PPH-5, nematode protein phosphatase, homolog of human Pp5 (enzyme, C. elegans, UniProt Q9NES8 1-496, looked up)
chain: MAATITDDIVATVLESIEEKSYEDEKEKAGMIKDEANQFFKDQVYDVAADLYSVAIEIHPTAVLYGNRAQAYLKKELYGSALEDADNAIAIDPSYVKGFYRRATANMALGRFKKALTDYQAVVKVCPNDKDARAKFDECSKIVRRQKFEAAISTDHDKKTVAETLDINAMAIEDSYDGPRLEDKITKEFVLQLIKTFKNQQKLHKKYAFKMLLEFYNYVKSLPTMVEITVPTGKKFTICGDVHGQFYDLCNIFEINGYPSETNPYLFNGDFVDRGSFSVETIFTMIGFKLLYPNHFFMSRGNHESDVMNKMYGFEGEVKAKYTQQMCDMFTETFCWLPLCHLINEKIFVCHGGLFKEDGVTLEDIRKTDRNRQPPDEGIMCDLLWSDPQPINGRSPSKRGVGCQFGPDVTSKWCETNGIEYVVRSHEVKPEGYEMHHNGQCFTVFSAPNYCDQMNNKGAFITITGDNLTPRFTPFDAVPHPKLPPMAYANSLFGFN
notes: PPH-5, TPR-containing serine/threonine phosphatase, C. elegans; source: E. coli BL21 (DE3), purified (HisTrap, Resource Q, Superdex size exclusion)
- binding result [4]: binds

More lines, now with the values ahead:

- binding result [1]: binds
B1: STI-1, nematode TPR cofactor of HSP-90 (homolog of human Hop) (natural protein, C. elegans, UniProt O16259 1-320, looked up)
chain: MTDAAIAEKDLGNAAYKQKDFEKAHVHYDKAIELDPSNITFYNNKAAVYFEEKKFAECVQFCEKAVEVGRETRADYKLIAKAMSRAGNAFQKQNDLSLAVQWFHRSLSEFRDPELVKKVKELEKQLKAAERLAYINPELAQEEKNKGNEYFKKGDYPTAMRHYNEAVKRDPENAILYSNRAACLTKLMEFQRALDDCDTCIRLDSKFIKGYIRKAACLVAMREWSKAQRAYEDALQVDPSNEEAREGVRNCLRSNDEDPEKAKERSLADPEVQEILRDPGMRMILEQMSNDPGAVREHLKNPEIFQKLMKLRDAGVIQMR
notes: STI-1, C. elegans; source: E. coli BL21 (DE3), purified (HisTrap, Resource Q, Superdex size exclusion)

- binding result [2]: binds
B2: human p23 (natural protein, UniProt Q15185 1-160, looked up)
chain: MQPASAKWYDRRDYVFIEFCVEDSKDVNVNFEKSKLTFSCLGGSDNFKHLNEIDLFHCIDPNDSKHKRTDRSILCCLRKGESGQSWPRLTKERAKLNWLSVDFNNWKDWEDDSDEDMSNFDRFSEMMNNMGGDEDVDLPEVDGADDDSQDSDDEKMPDLE
notes: p23 co-chaperone, human; source: E. coli BL21 (DE3), purified (HisTrap, Resource Q, Superdex size exclusion)

- binding result [3]: binds
B4: human Fkbp52 (enzyme, UniProt Q02790 1-459, looked up)
chain: MTAEEMKATESGAQSAPLPMEGVDISPKQDEGVLKVIKREGTGTEMPMIGDRVFVHYTGWLLDGTKFDSSLDRKDKFSFDLGKGEVIKAWDIAIATMKVGEVCHITCKPEYAYGSAGSPPKIPPNATLVFEVELFEFKGEDLTEEEDGGIIRRIQTRGEGYAKPNEGAIVEVALEGYYKDKLFDQRELRFEIGEGENLDLPYGLERAIQRMEKGEHSIVYLKPSYAFGSVGKEKFQIPPNAELKYELHLKSFEKAKESWEMNSEEKLEQSTIVKERGTVYFKEGKYKQALLQYKKIVSWLEYESSFSNEEAQKAQALRLASHLNLAMCHLKLQAFSAAIESCNKALELDSNNEKGLFRRGEAHLAVNDFELARADFQKVLQLYPNNKAAKTQLAVCQQRIRRQLAREKKLYANMFERLAEEENKAKAEASSGDHPTDTEMKEEQKSNTAGSQSQVETEA
notes: Fkbp52, human PPIase; source: E. coli BL21 (DE3), purified (HisTrap, Resource Q, Superdex size exclusion)
